This is an account of results in the PETadex activity labels (doi:10.3390/microorganisms12010138).

Substrate in series [1]: PET
Kind of series: Proxy for plastic degradation [Released monomer concentration (HPLC/LC-MS) (TPA)]. Particulars: pH 7.

Substrate in series [2]: PET
Description: Proxy for plastic degradation [Released monomer concentration (HPLC/LC-MS) (MHET)]. The following applies: pH 7.

B1: unnamed (protein)
chain: MKKLLKVLLIIFLVIVVLVIGLVIFLTIASGKQNAPKEYWNAIASEGTIEKEYNKLGSYEFESKVYDAPKVDSHDNNFVVYMPKEEGTYPLVVMVNGSGTPWDKYKAVFEHFASWGYVVVGCNYEISWDGKHASETLDFALNTKEIADKVDTSKVAVCGHSQGGEGAFNAALEYDNSDMYKAIISLSPTNQELALGLKWGFNLDTDDMYAYRLENVTIPTMIIAGTGKFDSETVTPLYKMEDMFEQLNTDVVMARLSNNVDHGAVLYEANGYVIAWLDYYLKGIETNGTAFFGNEAEIKNNTRYQDFTSQKVK
B1: the “Proxy for plastic degradation” value with PET [1] was found to be 6 µM.

B2: unnamed (protein)
chain: MEKSVLIKGDNYDISGILSYKETVDKMPAVILCHGTGAQKNEVGDLFVILAEKLLQRGIASIRIDYAGCGDSKADQRELTFLGEVEDTKKAYQYICDLGCVDQKNIGILGFSQGARVVAELLKEMQEFTCVASWSGACQNGRGVFEGWFQEYYQEAEEHGYARIPMGWRDDLLLSKQWFDEIENTTPMDGLKKYTGPVLAVAGAADEIVPCSHTKEIMAEGTNEQSKMLILPGADHIFNVLSGDKTMSEHVLDVTADWFAEVMGGAKISK
In the case of B2, the entries for the “Proxy for plastic degradation” value with PET [1] and with PET [2] (37 °C) were 4 µM and 0 µM, respectively.

B3: unnamed (protein)
chain: MKKLLKVLLIIFLVIVVLVIGLVIFLTIASGKQNAPKEYWNAIASEGTIEKEYNKLGSYEFESKVYDAPKVDSHDNNFVVYMPKEEGTYPLVVMVNGSGTPWDKYKAVFEHFASWGYVVVGCNYEISWDGKHASETLDFALNTKEIADKVDTSKVAVCGHSQGGEGAFNAALEYDNSDMYKAIISLSPTNQELALGLKWGFNLDTDDMYAYRLENVTIPTMIIAGTGKFDSETVTPLYKMEDMFEQLNTDVVMARLSNNVDHGAVLYEANGYVIAWLDYYLKGIETNGTAFFGNEAEIKNNTRYQDFTSQKV
As to B3, the “Proxy for plastic degradation” value with PET [1] (37 °C, part of the chain shown) was found to be 0 µM; in the series with PET [2] (37 °C, part of the chain shown), 0 µM.

B4: unnamed (protein)
chain: MQNPSAPVVETRQGALTGLTDENVHRWCGIPYAAPPVGDWRWRSPRPPERWDGVRDATAFSASSWQSSEYCQELGGGDPGQFSEDCLYLNVWSPVDRPGSLPVMVWLHGGGFTIGAGGLPPYHGKSLAARGVVVVTINYRLGHLGFFAHPALEGEEERVVHNFALLDQIAALEWVRENITAFGGDPHNVTLFGESAGARSVLSLLASPLAEGLFHKAIVQSGYTLPDTPRQQALQKGEALAAHFGLENATAEQLRAIPPESFWPLTAPLNIAPAPIVGDCVLPEAMLDVFFAARQHPVPVMIGSNSDEASVMAVFGIDLAGQIQKLRRERRFGLGLIKLLYPGVKGDEELGRQVCRDMAFTTMGYVVMQAQQRVGGLCWRYWFDYVAEAEHATYINGAWHGNEVPYVFDTLGQVEPSRQYVNERDLQFAARVADYWVSFARDAGTHDSLSGPTHWPACRKGRDVLLRIGVNKHAGFRLENRFMRARMSLFKRVMKHHVSLD
On to B4, for which the “Proxy for plastic degradation” value in the series with PET [1] came to 2 µM; in the series with PET [1] (37 °C), 0 µM; in the series with PET [2], 0 µM; with PET [2] (37 °C) it was 0 µM.

B5: unnamed (protein)
chain: MNFPRASRLMQAAVLGGLMAVSAAATAQTNPYARGPNPTAASLEASAGPFTVRSFTVSRPSGYGAGTVYYPTNAGGTVGAIAIVPGYTARQSSIKWWGPRLASHGFVVITIDTNSTLDQPSSRSSQQMAALRQVASLNGTSSSPIYGKVDTARMGVMGWSMGGGGSLISAANNPSLKAAAPQAPWDSSTNFSSVTVPTLIFACENDSIAPVNSSALPIYDSMSRNAKQFLEINGGSHSCANSGNSNQALIGKKGVAWMKRFMDNDTRYSTFACENPNSTRVSDFRTANCS
Turning to B5, the “Proxy for plastic degradation” value with PET [2] (part of the chain shown) was determined as 370 µM.
